Biological target: Streptavidin (on Sepharose beads) (UniProt P22629 25-183)
Experiment: bead binding, flow cytometry and fluorescence microscopy; SA3 released from AP by lambda exo, no ALP; 70 mM Tris-HCl, 10 mM MgCl2, pH 8.0; 200 nM AP in 100 uL, 3 uL SA beads, 5 min at room temperature after enzyme steps at 37 C and 75 C inactivation
Conditions: protein: commercial; tags: immobilized on Sepharose beads; chain copies: 4; label: 5'-FAM; hairpin with bulge

Chain of Streptavidin (on Sepharose beads) (P22629 25-183): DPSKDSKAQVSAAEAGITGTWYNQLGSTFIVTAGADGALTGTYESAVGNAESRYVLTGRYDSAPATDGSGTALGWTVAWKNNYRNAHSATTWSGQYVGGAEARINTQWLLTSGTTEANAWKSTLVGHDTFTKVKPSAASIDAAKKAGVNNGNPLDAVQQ

B1: SA3 (structured_DNA)
DNA: ATTGACGCGTGTGACGCAACACTCAAT
Q: Does B1 bind?
A: binds
